The target in series [1] is T1, TRF1 purified from HeLa (Homo sapiens, UniProt P54274 SEQ:1-439).
T1 chain: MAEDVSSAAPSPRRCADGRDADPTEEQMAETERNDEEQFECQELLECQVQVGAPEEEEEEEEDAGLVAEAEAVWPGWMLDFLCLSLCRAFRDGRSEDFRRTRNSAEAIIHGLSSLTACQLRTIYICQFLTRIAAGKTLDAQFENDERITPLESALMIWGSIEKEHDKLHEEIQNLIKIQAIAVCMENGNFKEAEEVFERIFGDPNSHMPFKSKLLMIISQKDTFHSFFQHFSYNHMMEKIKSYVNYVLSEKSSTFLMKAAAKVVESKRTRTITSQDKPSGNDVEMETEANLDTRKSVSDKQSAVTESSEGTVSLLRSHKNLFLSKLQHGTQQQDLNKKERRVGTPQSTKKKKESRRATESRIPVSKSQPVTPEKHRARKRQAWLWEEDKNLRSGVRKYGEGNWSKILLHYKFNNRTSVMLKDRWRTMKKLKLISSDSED
Nature of the series: EMSA; bend 64-66 degrees; competed by TTAGGG plasmid. The following applies: chain copies: 2 stated; label: 32P. How it is done: (§1) DNA bending assay: PCR primers were used to generate DNA fragments with the composition indicated in FIG. 9 using pTH3, pTH6, and pTH12 [Zhong et al., 1992, supra] as templates, which contain 3, 6, and 12 tandem TTAGGG repeats, respectively. The products were end-labelled with ^32P-γ-ATP and polynucleotide kinase and the labelled fragments were isolated by preparative acrylamide gel-electrophoresis. Gel-shift reactions with partially purified HeLa TRF1 were performed as described above and the migration of the complexes was analyzed as described by Ferrari et al. [Ferrari et al., 1992, supra], and Thompson and Landy [*Nucl. Acids Res.*, 16:9687–9705 (1988)].
(§2) Labeled DNA probes were incubated with purified HeLa TRF1 under conditions in which one TRF1 dimer binds per probe molecule [Zhong et al., 1992, supra] and the mobility of the resulting complexes was analyzed on native polyacrylamide gels. The permuted sets of fragments had the same electrophoretic mobility as expected from their equal lengths. […] As shown in FIG. 9B for the 6mer and 12mer probes, an effect of the position of the hTRF1 binding site within the probes was observed. Slower migrating complexes were obtained when the binding site for hTRF1 was located more centrally in the DNA molecule, consistent with the induction of DNA bending upon hTRF1 binding.
(Mobility shift assays separate free from complexed probe on a gel.)

The target of a further series is T2, TRF1 delta263-376 (Homo sapiens, internal deletion 263-376).
T2 chain: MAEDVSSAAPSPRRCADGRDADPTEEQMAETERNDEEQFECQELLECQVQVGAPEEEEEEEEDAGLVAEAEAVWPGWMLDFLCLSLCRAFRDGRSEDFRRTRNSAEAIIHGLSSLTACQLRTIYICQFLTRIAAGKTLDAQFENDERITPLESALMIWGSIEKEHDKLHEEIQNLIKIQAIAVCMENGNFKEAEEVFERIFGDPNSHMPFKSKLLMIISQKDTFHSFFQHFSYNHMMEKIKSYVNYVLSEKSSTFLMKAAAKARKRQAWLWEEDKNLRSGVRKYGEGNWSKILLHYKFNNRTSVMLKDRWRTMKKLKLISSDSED
Nature of the series: EMSA; dimerization domain fused to Myb. The following applies: label: 32P. The text has this: (§3) Coupled in vitro transcription/translation: TRF1 deletion mutants used for the in vitro coupled transcription/translation experiments were cloned in the vector pET28(a) (Promega) in the NcoI and EcoRI sites using PCR-generated fragments. The GFP-TRF1 fusion product was cloned in pBluescriptKS+. PCR-directed mutagenesis was used to eliminate from this construct the start codon of the TRF1 gene by mutating it from ATG to ATT in order to suppress the occurrence of internal translation at this position. The GFP sequence was obtained from pS65T-C I (Clontech). Expression of TRF1 derivatives was achieved by using a rabbit reticulocyte lysate system (Promega) using reaction conditions essentially as described by the supplier. Briefly, between 0.2 to 1 µg of total plasmid DNA was used per 20 µl reaction containing T7 RNA polymerase in the presence of ^35S-methionine (to visualize products on SDS-PAGE) or without labeled amino acids (for gel-shift assays). After the transcription/translation reaction samples were diluted 1:5 with the addition of 80 µl of buffer D [Chong et al., 1995, supra]. Of this mixture, 0.5–5 µl was used in gel-shift reactions.
(§4) Gel-shift assays: Gel-shift assays were performed as described previously [Zhong et al., 1992, supra] using labeled restriction fragments as probes. […]

In series [2] the target is T1, TRF1 purified from HeLa. Nature of the series: EMSA; bend 57 and 59 degrees; competed by TTAGGG plasmid. The following applies: chain copies: 2 stated; label: 32P. As for the experimental part: as §1, §2
The target of the next series is TRF1 deltaN-28 (Homo sapiens, UniProt P54274 SEQ:1-439, deletion of first 28 aa). Nature of the series: EMSA; activity unaffected. The following applies: label: 32P.
Source text: as §3, §4

In the next series the target is TRF1 deltaN-46 (Homo sapiens, UniProt P54274 SEQ:1-439, deletion of first 46 aa). Nature of the series: EMSA; activity unaffected. The following applies: label: 32P.
Source text: as §3, §4

The next series addresses TRF1 deltaN-196 (Homo sapiens, UniProt P54274 SEQ:1-439, deletion of N-terminus to 196). Nature of the series: EMSA; lacks dimerization domain. The following applies: label: 32P.
Source text: as §3, §4

In a further series the target is TRF1 deltaN-376 (Homo sapiens, UniProt P54274 SEQ:1-439, deletion of N-terminus to 376). Nature of the series: EMSA; Myb domain without dimerization domain. The following applies: label: 32P.
Source text: as §3, §4

The target in the next series is T3, TRF1 derivative II (Homo sapiens, UniProt P54274 SEQ:1-439).
T3 chain: T1 chain
Nature of the series: EMSA; binds as homodimer. The following applies: tags: N-terminal 43 aa polylinker-encoded addition; chain copies: 2 stated; label: 32P.
Source text: as §3, §4

Another series has as its target T4, GFP-TRF1 (Homo sapiens, UniProt P54274 SEQ:1-439).
T4 chain: T1 chain
Nature of the series: EMSA; binds as homodimer. The following applies: tags: N-terminal GFP; TRF1 start codon ATG to ATT; chain copies: 2 stated; label: 32P.
Source text: as §3, §4

The next series deals with T5, TRF1 full length (Homo sapiens, UniProt P54274 SEQ:1-439).
T5 chain: T1 chain
Nature of the series: EMSA. The following applies: label: 32P.
Source text: as §3, §4

B1: [TTAGGG]6 permuted probes (dsDNA)
DNA 1: TTAGGGTTAGGGTTAGGGTTAGGGTTAGGGTTAGGG
DNA 2: CCCTAACCCTAACCCTAACCCTAACCCTAACCCTAA
As to B1, the binding result with TRF1 purified from HeLa [1] is listed as “binds”.

B2: [TTAGGG]12 probe (142 bp pTH12 fragment) (dsDNA)
DNA 1: TTAGGGTTAGGGTTAGGGTTAGGGTTAGGGTTAGGGTTAGGGTTAGGGTTAGGGTTAGGGTTAGGGTTAGGG
DNA 2: CCCTAACCCTAACCCTAACCCTAACCCTAACCCTAACCCTAACCCTAACCCTAACCCTAACCCTAACCCTAA
Take B2: the binding result was “no binding” in the series with TRF1 delta263-376; “binds” in the series with TRF1 purified from HeLa [2]; “binds” with TRF1 deltaN-28; “binds” in the series with TRF1 deltaN-46; “no binding” with TRF1 deltaN-196; “no binding” with TRF1 deltaN-376. Moreover, the binding result in the series with TRF1 derivative II, in the series with GFP-TRF1 and with TRF1 full length was “binds” throughout.

Source of the values: patent US6020166, “Nucleic acid encoding an altered telomere repeat binding factor 2” (The Rockfeller University).
